Test system: T1, GdmRIII (Streptomyces autolyticus CGMCC0516), ORF:755639c7
T1 sequence: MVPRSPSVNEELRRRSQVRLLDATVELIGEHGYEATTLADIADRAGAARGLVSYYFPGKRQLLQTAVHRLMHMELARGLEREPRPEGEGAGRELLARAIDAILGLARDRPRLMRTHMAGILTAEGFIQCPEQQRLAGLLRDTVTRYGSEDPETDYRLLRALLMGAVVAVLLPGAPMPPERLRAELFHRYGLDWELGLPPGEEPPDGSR
Assay: EMSA
Details: EMSA: 10 mM Tris-HCl pH 7.5, 50 mM NaCl, 10 mM MgCl2, 1 mM EDTA, 1 mM DTT, 5% glycerol, 0.1 ug/ul poly(dI-dC), 0.3 nM DNA; temperature not given

binding, binds:
AGGAGCTGCCCGACTGGCGGTCCTTCTGGGAGCTGCCGCACGACATCGTCGATGTGCGCGGCAACCACTTCACCATGATGGAGGACCACTCCCTCCCCACCGCCCAGGCCATCGAGGACTGGCTGGAGCGACT (double strand) [elaF promoter]
GCGACGTCCACCGCCGTCTCCTTCCCGCTCATTCGCCCGCCAGGATCAGATCGACCGTGTCCTGGAACTCGTCCGCCTTCACCAGCACCTTGGTGCGCTCCACCCCGTCCTCGACGGTGAAGCAGCGCCTGCCGATCAGCACGATCTTTCCGTTGTCCGTGGCCCGGCTGCGGAAGGTGGTCCCGGCGAGCACCGAGTCCTGTGCGTAGTCGTCCAGGCTGTCCAGCCGCACCGCGTCCCAGCCGGACGGGTCGGCCAGCTCCGGCCGGAACCGGTACACCGGCTGCCAGCCGCTCTC (double strand) [gdmM promoter]
GCTCACCGACCCCGCGCACGAGGTGCTGGTCATCACGATGGCCGACCGGTTCGGCCCGCACGGCGCCGTCGGCATCGTGCTGCTGGAACGCCACCCGGCGGTGTGGCATCTGAAACTGCTCGCCACCTCCTGCCGTGTGGTCTCCTACGGCGCCGGGTCCACCCTGCTGAACTGGCTGGCCGACCAGGCGGCGCGTGCCGGGGTGCATCTGGCCGCCGACTTCCGGCGCACCGACCGCAACCGGATGATGGAGGTCGCCTACCGCTTCGCCGGGTTCGCCGACGCCGACTGCGCCTGCAC (double strand) [gdmN promoter]

— PMC5500506
